This note sets out measurements from the supplement of paper PMC9170038.

This data set concerns MS2 coat protein. Nature of the data set: apparent KD of MS2 coat protein; designed switch direction (-1 OFF switch, 1 ON switch): -1; higher = weaker reporter binding. The method, boiled down:
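Each step of the titration lasted 0.8–1.5 h at the lowest concentration and 10–20 min at the highest. The protein, SNAP-549-labelled MS2 coat protein, went from 0.7 or 1.5 nM doubling to 3 µM over RNA switches transcribed on Illumina chips by stalled E. coli RNA polymerase. Normalised cluster fluorescence was curve-fitted, and the per-design median over clusters is given as apparent KD.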

Where [1] appears, read: input ligand: microRNA oligo, concentration not stated.
Setting [2] is: Eterna round: R95, input ligand: FMN 200 uM.
Where [3] appears, read: Eterna round: R95, input ligand: microRNA oligo, concentration not stated.
Where [4] appears, read: Eterna round: R95, input ligand: none.

“UCGUUCCGUGUAGGAUAUUGGCCUUCCUCGGGCCGAGAAGGACAUGAGGAUCACCCAUGUAUGCUAUUAUCGCGCGUGGCGCAC [Design 96] (Eterna round: R96, puzzle: Exclusion NG 1)”: the “apparent KD of MS2 coat protein” value stood at 141 nM (input ligand: FMN 200 uM), 24.5 nM under setting [1] and 33 nM (input ligand: none).
As to “UCUCCACAUGAGGAUCACCCAUGUCAGGAUAUGCUGCGGCUACUAAAAGAGAAUUGCGGCAGAAGGGACACGCC [EX1 B.25] (Eterna round: R97, puzzle: Exclusion 1)”, the “apparent KD of MS2 coat protein” value was 68 nM (input ligand: FMN 200 uM) and 20.2 nM (input ligand: none).
On the same counts, the results for “UCUCCUCCCGUAAGGAUAUUCAUGCGUACCACGCGGAAGAAGGUACAUGAGGAUCACCCAUGUAAUUAACACCG [BmEX4 B.9] (Eterna round: R97, puzzle: Brourd's mod of Exclusion 4)” are 30.7 nM and 24.3 nM.
Regarding “UCUCGUUGGCAAGGAUAUCCUACAUUGUUCUGGCCCGGGCAUGCUACAUGAGGAUCACCCAUGUGGGAGAAGGUGCGUCAUUGC [Design 23] (Eterna round: R96, puzzle: Exclusion NG 2)”, the “apparent KD of MS2 coat protein” value by setting is: (input ligand: FMN 200 uM) 146 nM; under setting [1], 77.4 nM; (input ligand: none) 140 nM.
“UCUGGUCGAGGAUAUACAUGAGGAUCACCCAUGUGGUUACGUGACGAUAGUCACGAAUGUAGAAGGCGACCAGA [E3/4-A2] (Eterna round: R97, puzzle: Exclusion 3)”: the “apparent KD of MS2 coat protein” value is 326 nM (input ligand: FMN 200 uM) and 230 nM (input ligand: none).
As for “UCUGGUCGAGGAUAUACGUGAGGUGCUUCGGCACCAGGUCUACAUGAGGAUCACCCAUGUAGAAGGCGACCAGA [EX2 #61] (Eterna round: R97, puzzle: Exclusion 2)”, the “apparent KD of MS2 coat protein” value runs as follows: (input ligand: FMN 200 uM) 62.1 nM; (input ligand: none) 16.7 nM.
With “UCUGGUCGGAAGGAUAUGGUCGGGUCAAAUCGGCCAGAAGGUCUGACAUGAGGAUCACCCAUGUGAGUCCAAAG [Esceus] (puzzle: Exclusion 6)”, the “apparent KD of MS2 coat protein” value under setting [2] is 51.7 nM, the “apparent KD of MS2 coat protein” value under setting [3] is 21.6 nM and the “apparent KD of MS2 coat protein” value under setting [4] stood at 20.8 nM.
With “UCUGGUGCAGGAUAUACAUGAGGAUCACCCAUGUGAUCAGCAGUCCUCGGACUGCAAUGUAGAAGGGCACCAGA [E3/1-D2] (Eterna round: R97, puzzle: Exclusion 3)”, the “apparent KD of MS2 coat protein” value stood at 47.1 nM (input ligand: FMN 200 uM) and 1230 nM (input ligand: none).
For “UCUUCACAUGAGGAUCACCCAUGUCAGGAUAUAAGGUCUUGUCUACGUUGAAGGGACUUUAGAAGGGACACUUG [EX1 B.6] (Eterna round: R97, puzzle: Exclusion 1)”, in that order: 107 nM and 36 nM.
On the same counts, the results for “UCUUCACAUGAGGAUCACCCAUGUGAGGAUAUGGAUUCGCUGGCCGUAGCCAGUGGAUCCAGAAGGCGCGUGAU [JL-ex1-4.23] (Eterna round: R97, puzzle: Exclusion 1)” are 65 nM and 74 nM.
On the same counts, the results for “UCUUGUUGUCCGUGAGAAGACAUGAGGAUCACCCAUGUUAGUUUGAUUAUGAUGUGUAAGUUUGUUGCUCGUUUUAU [JR_STOV1_v2_Sub071] (Eterna round: R97, puzzle: Sensor, turn-off variant 1)” are 50.2 nM and 56.5 nM.
Take “UCUUUAUUUGUGAGGAUAUCGAUAAAAUGGAUUGUCGAGAAGGCACAUGAGGAUCACCCAUGUGUGGAACAGCA [JR_BMEx4_Sub024] (Eterna round: R97, puzzle: Brourd's mod of Exclusion 4)”: the “apparent KD of MS2 coat protein” value reads like this: (input ligand: FMN 200 uM) 54.8 nM; (input ligand: none) 18.8 nM.
On the same counts, the results for “UCUUUCAUUGUGAGGAUAUGCCCAAAUAAAAGCGGGCAGAAGGCACAUGAGGAUCACCCAUGUCCUGCGGUUAU [salish99_bmx4_r4_150] (Eterna round: R97, puzzle: Brourd's mod of Exclusion 4)” are 357 nM and 56.9 nM.
On the same counts, the results for “UGAACUGUAGGAUAUACAUGAGGAUCACCCAUGUCCCUUCGAUGAGGUCCCACCACGUGUAGAAGGAUGGAAGA [Eternabot (L1) Solution 11] (Eterna round: R97, puzzle: Exclusion 3)” are 36.8 nM and 42.2 nM.
Regarding “UGAAUGUGAGGAUAUGGUGAGUAGUGCCUGAGCGCUGCUCACCAGAAGGCACAUGAGGAUCACCCAUGUACUUG [JL-ex4-2.07 denovo] (puzzle: Exclusion 4)”, the “apparent KD of MS2 coat protein” value under setting [3] worked out at 49.4 nM.
In the case of “UGACAGUGAGGAUAUUAUCUGAGGGACAUGAGGAUCACCCAUGUGCACUCACGGGCCCAGUAAGAAGGCACGAGCU [EX5 B.23] (Eterna round: R97, puzzle: Exclusion 5)”, the “apparent KD of MS2 coat protein” value (input ligand: FMN 200 uM) was 18.1 nM and the “apparent KD of MS2 coat protein” value (input ligand: none) is 18.8 nM.
For “UGAGCAUCAGGAUAUACAAGGCGACCGUGAGGUCGAAGGUUACAUGAGGAUCACCCAUGUAGAAGGGAUGUUCU [jl-ex2-4.11] (Eterna round: R97, puzzle: Exclusion 2)”, the “apparent KD of MS2 coat protein” value reads like this: (input ligand: FMN 200 uM) 49.4 nM; (input ligand: none) 25.4 nM.
For “UGAGCAUCAGGAUAUACAAGGCGACCGUGAGGUCGAGGGUUACAUGAGGAUCACCCAUGUAGAAGGGAUGUUCU [jl-ex2-4.09] (Eterna round: R97, puzzle: Exclusion 2)”, the “apparent KD of MS2 coat protein” value is, setting by setting: (input ligand: FMN 200 uM) 196 nM; (input ligand: none) 43.4 nM.
For “UGAGGACAUGAGGAUCACCCAUGUAAGGAUAUGCGGAGAGCUUGGAGAGGUUGAGGAGGCAGAAGGUACAGGAC [JR_Exclu1_Sub048] (puzzle: Exclusion 1)”, the “apparent KD of MS2 coat protein” value came out at 47.7 nM under setting [2], 48.3 nM under setting [3] and 57 nM under setting [4].
For “UGAGUGCUGCGAGGAUAUACAUGAGGAUCACCCAUGUAAUCGUGUGAGGCAAAGCCUCACACGAUGUAGAAGGCGCAGUACUCU [Mat - Exclusion NG 2 - Mod of JL - D23] (Eterna round: R96, puzzle: Exclusion NG 2)”, the “apparent KD of MS2 coat protein” value is 12.8 nM (input ligand: FMN 200 uM), 11.4 nM under setting [1] and 18.2 nM (input ligand: none).
For “UGAGUGGUGCGAGGAUAUACAUGAGGAUCACCCAUGUAAACGUGUGAGGCUUUGCCUCACACGAUGUAGAAGGCGCACUACUCU [Mat - Exclusion NG 2 - Mod of JL - D13] (Eterna round: R96, puzzle: Exclusion NG 2)”, in that order: 15.6 nM, 9.36 nM and 13.6 nM.
For “UGAUCUAGCGGAGGAUAUACAUGAGGAUCACCCAUGUAGUAGUGAGUACCGUAGUGCUCACUUGUGUAGAAGGCCGCUAGAUCU [JL ENG2 3.60] (Eterna round: R96, puzzle: Exclusion NG 2)”, in that order: 17.9 nM, 9.86 nM and 13.5 nM.
For “UGAUCUUGUGUUAGGAUAUGCUGGUUUUUUUUUCAGCAGAAGGGACAUGAGGAUCACCCAUGUUCUCUCUUUUU [Magic-10] (puzzle: Brourd's mod of Exclusion 4)”, the “apparent KD of MS2 coat protein” value under setting [3] came out at 15 nM.
For the sequence “UGCAAGCUUUAAAGAUCCUACAUGAGGAUCACCCAUGUGCUCGUCUUAUAACGUACUGUGACGAAAGUCACGGUACG [JL TOV1 3.96] (Eterna round: R97, puzzle: Sensor, turn-off variant 1)”, the “apparent KD of MS2 coat protein” value (input ligand: FMN 200 uM) was determined as 324 nM and the “apparent KD of MS2 coat protein” value (input ligand: none) is 315 nM.
On the same counts, the results for “UGCAGACGAGGAUAUAAACGAUAUAACAUGAGGAUCACCCAUGUACGAUCGAAUGAUCGUUUAGAAGGCGUCUGCA [E5/10-A1] (Eterna round: R97, puzzle: Exclusion 5)” are 16.6 nM and 15.7 nM.
For “UGCAGACGAGGAUAUGAUUAAUAAUACAUGAGGAUCACCCAUGUAAUACUGAUCUAUGGAUCAGAAGGCGUCUGCA [E5/6-A1] (Eterna round: R97, puzzle: Exclusion 5)”, in that order: 11.4 nM and 12.9 nM.
On the same counts, the results for “UGCAGUGAUCCAGAAUGUUACAUGAGGAUCACCCAUGUUAGUAUUGUUUAGUUGUAUAAGUUUGUUGUUCGUUUUAU [JR_STOV1_v2_Sub079] (Eterna round: R97, puzzle: Sensor, turn-off variant 1)” are 68.8 nM and 202 nM.
For the sequence “UGCAUGGUAGGAUAUACGGAACAUUAGGGUUUGUUGUGUGGACAUGAGGAUCACCCAUGUAGAAGGGCCGUGCU [JL-ex2-2.15 mat747 mod] (puzzle: Exclusion 2)”, the “apparent KD of MS2 coat protein” value under setting [3] came out at 40.4 nM.
In the case of “UGCAUGUAAGGAUAUGCAUCCGCCAACGAACCGGCGGCACAGCAGAAGGUACAUGAGGAUCACCCAUGUGUCCC [Isonrian] (Eterna round: R96, puzzle: Exclusion 4)”, the “apparent KD of MS2 coat protein” value was 357 nM (input ligand: FMN 200 uM), 25 nM under setting [1] and 29.8 nM (input ligand: none).
Take “UGCAUGUCAGGAUAUCGUGCAUACAACGAAAGUUCUAUGUGCGAGAAGGGACAUGAGGAUCACCCAUGUCUUAG [Omei Ex4 A18] (Eterna round: R97, puzzle: Exclusion 4)”: the “apparent KD of MS2 coat protein” value was determined as 67.1 nM (input ligand: FMN 200 uM) and 22.6 nM (input ligand: none).
For “UGCCGAAGAGGAUAUACAUUGAAUUUGAUUCAUGUAAAACUACAUGAGGAUCACCCAUGUAGAAGGCUUUGGCU [Mat - Exclusion 2 - JL Mod - D61] (Eterna round: R97, puzzle: Exclusion 2)”, in that order: 34.2 nM and 15.3 nM.
